In the data set the target is CsrA (Escherichia coli EPEC O127:H6 E2348/69, UniProt B7UHB4 1-61). Kind of data set: EMSA; no CesT. The conditions noted are these: protein: recombinant; tags: GST tag, cleaved by PreScission (pGEX-6P-1); chain copies: 2; label: none (ethidium bromide stain); single strand, heated to 80 C and slowly cooled.

These results are taken from article PMC5864733.

Sequence of CsrA (B7UHB4 whole entry): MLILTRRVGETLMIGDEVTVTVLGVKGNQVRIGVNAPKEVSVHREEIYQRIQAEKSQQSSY

B1: nleA 5'UTR RNA (structured_RNA)
RNA: CACUAAUAAUAUCAAUGGAUUGAUAUUAUUAAUG
As to B1, the binding result is “binds”.
